Source: patent US20170218059A1

Molecular target: histones
Assay: ELISA

Kd: 6.6 nM
B1: murine IMMU-H4 antibody (antibody, V domains shown)
VH: QVQLQQSGAELVRPGASVKLSCTASGFNIKDDYLHWVKQRPEQGLEWIGWIDPENGDTEYASKFQGKATITADTSSNTAYLQLSSLTSEDTAVYYCSSPLVHLRTFAYWGQGTLVTVS
VL: DIQLTQSPASLAVSLGQRATISCRASESVDSYDNSLHWFQQKPGQPPKLLIYLASNLESGVPARFSGSGSRTDFTLTIDPVEADDAATYYCQQNNEDPWTFGGGTKLEIKR
